Reference: US20240410900A1 (Hoffmann-La Roche, published 2024)
Where a chain is given by its changes, count along the chain named.

B1: anti-PG variant Fc-region antibody M1.3.17 (antibody, V domains shown)
VH: EVKLLESGGGLVQPGGSLKLSCAASGIDFRRYWMNWVRQAPGKGLEWIGEIDPDSSTINYTPSLKDKFIISRDNAKNTMYLQMRKVRSEDTALYYCARPYDYGAWFAYWGQGTLVTVSA
VL: QAVVTQESALTTSPGETVTLTCRSTTGAVTTSNYANWVQEKPDHLFTGLIGGTNKRAPGVPARFSGSLIGDKAALTITGAQTEDEAIYFCALWYSDHWVFGGGTKLTVL
notes: Monomeric, bivalent full-length antibody with murine variable domains; Biotinylated when used as capture antibody; also called anti-PG antibody clone 1.3.17; M1.3.17-Bi
B2: anti-PG variant Fc-region antibody M1.7.24 (monomeric, bivalent) (antibody, V domains shown)
VH: B1 VH with I27F, R30S, D52T, M79L, R84I, A97V, Y108S
VL: B1 VL with T25S, D96N
notes: Full-length Y-shaped antibody with murine variable domains; Biotinylated when used as capture antibody; also called anti-PG antibody clone 1.7.24; M1.7.24-Bi
B3: anti-AAA variant Fc-region antibody M1.6.22 (antibody, V domains shown)
VH: EVQLVESGGDLVKPGGSLKLSCAASGFTFSSYGMSWVRQTPDKRLEWVATISSGGSYIYYPDSVKGRFTISRDNAKNTLYLQMSSLKSEDTAMYYCARLGMITTGYAMDYWGQGTSVTVSS
VL: DVLMTQTPLSLPVSLGDQASISCRSSQTIVHSTGHTYLEWFLQKPGQSPKLLIYKVSNRFSGVPDRFSGSGSGTDFTLKISRVEAEDLGVYYCFQGSHVPYTFGGGTKLEIK
notes: Murine variable domains; also called M1.6.22-Bi

biological target: T1, anti-VEGF/ANG2 antibody (wild-type IgG1 subclass) (UniProt P01857-1 1-330 = IgG part); experiment: ELISA assay B, tracer M1.7.10-Dig, target 13 ng/mL
T1 construct: also called sample 5; antibody 5
Procedure: (§1) Biotinylated anti-PG Fc-region antibody or biotinylated anti-AAA Fc-region antibody, respectively, was bound to the wells of a streptavidin-coated multi-well plate (SA-MTP) to produce a capture plate. Excess of unbound antibody was removed by washing. Sample/standard antibodies spiked in human and cynomolgus monkey serum (10% final concentration) was added to wells of the SA-MTP multi-well plate coated with the capture plate and incubated for 1 hour at room temperature. After washing, the wells were incubated with digoxygenylated anti-human kappa antibody M1.7.10 (see e.g. WO 2011/048043, incorporated herein by reference). After washing the bound digoxygenylated anti-human kappa antibody complex was incubated with a horseradish peroxidase (HRP) labelled anti-digoxygenin antibody. After another washing step, an ABTS solution was added to the wells and incubated. The product of the color reaction was measured by Elisa reader at 405 nm wavelength (reference wavelength: 490 nm). Absorbance values of each sample or standard were determined in triplicates.

Row | Binder | signal [OD405 nm]
1 | B1 | 0.042 OD405 nm
2 | B2 | 0.04 OD405 nm
3 | B3 | 0.046 OD405 nm

biological target: T2, anti-IGF-1R antibody (IgG1 subclass with mutations I253A/H310A/H435A); experiment: ELISA assay B, tracer M1.7.10-Dig, target 13 ng/mL
T2 construct: Positions are EU numbers; also called sample 3; antibody 3
Procedure: as §1

Row | Binder | signal [OD405 nm]
4 | B1 | 0.044 OD405 nm
5 | B2 | 0.043 OD405 nm
6 | B3 | 2.85 OD405 nm

biological target: T3, anti-VEGF/ANG2 antibody (IgG1 subclass with mutations P329G/L234A/L235A/I253A/H310A/H435A); experiment: ELISA assay B, tracer M1.7.10-Dig, target 13 ng/mL
T3 construct: Format of the bispecific antibody not described; Positions are EU numbers, not positions on the UniProt entry; also called sample 1; antibody 1
Procedure: as §1

Row | Binder | signal [OD405 nm]
7 | B1 | 0.034 OD405 nm
8 | B2 | 0.053 OD405 nm
9 | B3 | 0.041 OD405 nm

biological target: T4, anti-P-Selectin antibody (IgG4 subclass with mutations S228P/L235E); experiment: ELISA assay B, tracer M1.7.10-Dig, target 13 ng/mL
T4 construct: Positions are EU numbers; also called sample 4; antibody 4
Procedure: as §1

Row | Binder | signal [OD405 nm]
10 | B1 | 0.047 OD405 nm
11 | B2 | 0.037 OD405 nm
12 | B3 | 0.042 OD405 nm

biological target: T5, anti-VEGF/ANG2 antibody (IgG1 subclass with mutations P329G/L234A/L235A); experiment: ELISA assay B, tracer M1.7.10-Dig, target 13 ng/mL
T5 construct: Positions are EU numbers; also called sample 2; antibody 2
Procedure: as §1

Row | Binder | signal [OD405 nm]
13 | B1 | 0.217 OD405 nm
14 | B2 | 3.15 OD405 nm
15 | B3 | 0.066 OD405 nm

biological target: T1, anti-VEGF/ANG2 antibody (wild-type IgG1 …); experiment: ELISA assay C, tracer FcγRI-Dig, target 50 ng/mL

Row | Binder | signal [OD405 nm]
16 | B1 | 1.16 OD405 nm
17 | B2 | 0.066 OD405 nm
18 | B3 | 0.067 OD405 nm

biological target: T2, anti-IGF-1R antibody (IgG1 subclass …); experiment: ELISA assay C, tracer FcγRI-Dig, target 50 ng/mL

Row | Binder | signal [OD405 nm]
19 | B1 | 1.21 OD405 nm
20 | B2 | 0.095 OD405 nm
21 | B3 | 1.06 OD405 nm

biological target: T3, anti-VEGF/ANG2 antibody (IgG1 subclass …); experiment: ELISA assay C, tracer FcγRI-Dig, target 50 ng/mL

Row | Binder | signal [OD405 nm]
22 | B1 | 1.17 OD405 nm
23 | B2 | 0.084 OD405 nm
24 | B3 | 0.077 OD405 nm

biological target: T4, anti-P-Selectin antibody (IgG4 subclass …); experiment: ELISA assay C, tracer FcγRI-Dig, target 50 ng/mL

Row | Binder | signal [OD405 nm]
25 | B1 | 1.15 OD405 nm
26 | B2 | 0.066 OD405 nm
27 | B3 | 0.054 OD405 nm

biological target: T5, anti-VEGF/ANG2 antibody (IgG1 subclass …); experiment: ELISA assay C, tracer FcγRI-Dig, target 50 ng/mL

Row | Binder | signal [OD405 nm]
28 | B1 | 1.21 OD405 nm
29 | B2 | 0.094 OD405 nm
30 | B3 | 0.057 OD405 nm

biological target: T1, anti-VEGF/ANG2 antibody (wild-type IgG1 …); experiment: ELISA assay B, tracer M1.7.10-Dig, target 0 ng/mL (blank)
Procedure: as §1

Row | Binder | signal [OD405 nm]
31 | B1 | 0.043 OD405 nm
32 | B2 | 0.039 OD405 nm
33 | B3 | 0.037 OD405 nm

biological target: T2, anti-IGF-1R antibody (IgG1 subclass …); experiment: as above
Procedure: as §1

Row | Binder | signal [OD405 nm]
34 | B1 | 0.045 OD405 nm
35 | B2 | 0.04 OD405 nm
36 | B3 | 0.037 OD405 nm

biological target: T5, anti-VEGF/ANG2 antibody (IgG1 subclass …); experiment: as above
Procedure: as §1

Row | Binder | signal [OD405 nm]
37 | B1 | 0.038 OD405 nm
38 | B2 | 0.046 OD405 nm
39 | B3 | 0.038 OD405 nm

biological target: T1, anti-VEGF/ANG2 antibody (wild-type IgG1 …); experiment: ELISA assay B, tracer M1.7.10-Dig, target 6 ng/mL
Procedure: as §1

Row | Binder | signal [OD405 nm]
40 | B1 | 0.046 OD405 nm
41 | B2 | 0.038 OD405 nm
42 | B3 | 0.039 OD405 nm

biological target: T2, anti-IGF-1R antibody (IgG1 subclass …); experiment: ELISA assay B, tracer M1.7.10-Dig, target 6 ng/mL
Procedure: as §1

Row | Binder | signal [OD405 nm]
43 | B1 | 0.045 OD405 nm
44 | B2 | 0.039 OD405 nm
45 | B3 | 2.73 OD405 nm

biological target: T3, anti-VEGF/ANG2 antibody (IgG1 subclass …); experiment: ELISA assay B, tracer M1.7.10-Dig, target 6 ng/mL
Procedure: as §1

Row | Binder | signal [OD405 nm]
46 | B1 | 0.035 OD405 nm
47 | B2 | 0.053 OD405 nm
48 | B3 | 0.039 OD405 nm

biological target: T4, anti-P-Selectin antibody (IgG4 subclass …); experiment: ELISA assay B, tracer M1.7.10-Dig, target 6 ng/mL
Procedure: as §1

Row | Binder | signal [OD405 nm]
49 | B1 | 0.048 OD405 nm
50 | B2 | 0.037 OD405 nm
51 | B3 | 0.04 OD405 nm

biological target: T5, anti-VEGF/ANG2 antibody (IgG1 subclass …); experiment: ELISA assay B, tracer M1.7.10-Dig, target 6 ng/mL
Procedure: as §1

Row | Binder | signal [OD405 nm]
52 | B1 | 0.196 OD405 nm
53 | B2 | 2.98 OD405 nm
54 | B3 | 0.053 OD405 nm

biological target: T1, anti-VEGF/ANG2 antibody (wild-type IgG1 …); experiment: ELISA assay C, tracer FcγRI-Dig, target 25 ng/mL

Row | Binder | signal [OD405 nm]
55 | B1 | 1.16 OD405 nm
56 | B2 | 0.063 OD405 nm
57 | B3 | 0.066 OD405 nm

biological target: T2, anti-IGF-1R antibody (IgG1 subclass …); experiment: ELISA assay C, tracer FcγRI-Dig, target 25 ng/mL

Row | Binder | signal [OD405 nm]
58 | B1 | 1.2 OD405 nm
59 | B2 | 0.073 OD405 nm
60 | B3 | 0.401 OD405 nm

biological target: T3, anti-VEGF/ANG2 antibody (IgG1 subclass …); experiment: ELISA assay C, tracer FcγRI-Dig, target 25 ng/mL

Row | Binder | signal [OD405 nm]
61 | B1 | 1.07 OD405 nm
62 | B2 | 0.082 OD405 nm
63 | B3 | 0.081 OD405 nm

biological target: T4, anti-P-Selectin antibody (IgG4 subclass …); experiment: ELISA assay C, tracer FcγRI-Dig, target 25 ng/mL

Row | Binder | signal [OD405 nm]
64 | B1 | 1.17 OD405 nm
65 | B2 | 0.07 OD405 nm
66 | B3 | 0.06 OD405 nm

biological target: T5, anti-VEGF/ANG2 antibody (IgG1 subclass …); experiment: ELISA assay C, tracer FcγRI-Dig, target 25 ng/mL

Row | Binder | signal [OD405 nm]
67 | B1 | 1.21 OD405 nm
68 | B2 | 0.083 OD405 nm
69 | B3 | 0.063 OD405 nm
